{"source": "patent US20130344070A1", "key": {"[1]": {"molecular_target": "human CCR2 (CC-Chemokine Receptor 2) (human) (UniProt P41597)", "sequence (P41597 whole entry)": "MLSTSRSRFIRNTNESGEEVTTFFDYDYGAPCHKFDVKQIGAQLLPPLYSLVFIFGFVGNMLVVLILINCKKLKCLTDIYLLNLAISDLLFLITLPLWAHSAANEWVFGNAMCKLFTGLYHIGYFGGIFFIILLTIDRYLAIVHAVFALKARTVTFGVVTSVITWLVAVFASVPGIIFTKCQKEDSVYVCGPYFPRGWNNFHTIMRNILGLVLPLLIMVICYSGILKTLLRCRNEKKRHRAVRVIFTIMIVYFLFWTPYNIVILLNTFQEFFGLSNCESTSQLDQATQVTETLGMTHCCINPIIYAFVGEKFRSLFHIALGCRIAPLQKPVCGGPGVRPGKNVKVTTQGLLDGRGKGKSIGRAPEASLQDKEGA", "assay": "cell-based or functional assay"}, "[2]": {"molecular_target": "murine CCR2 (murine) (UniProt P51683)", "sequence (P51683 whole entry)": "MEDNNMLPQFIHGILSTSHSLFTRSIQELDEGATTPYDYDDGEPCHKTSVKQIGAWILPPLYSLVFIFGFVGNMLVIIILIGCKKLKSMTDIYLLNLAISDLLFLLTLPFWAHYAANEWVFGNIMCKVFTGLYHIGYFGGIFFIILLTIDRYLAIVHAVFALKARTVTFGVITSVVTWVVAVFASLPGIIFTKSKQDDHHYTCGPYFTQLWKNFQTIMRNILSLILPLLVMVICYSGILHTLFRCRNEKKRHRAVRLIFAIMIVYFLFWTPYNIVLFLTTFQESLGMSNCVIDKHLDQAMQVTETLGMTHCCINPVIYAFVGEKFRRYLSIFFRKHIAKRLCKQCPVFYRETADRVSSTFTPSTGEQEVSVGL", "assay": "cell-based or functional assay"}}, "data": [{"substance": "human MCP-1 (PROSPEC # CHM-271) (from UniProt P13500 24-99) (ligand)", "values": [{"measurement": "EC50 of MCP-1, MCP-1-induced calcium flux, THP-1 cells", "setting": "[1]", "result": 3.3, "unit": "nM"}, {"measurement": "EC50 of MCP-1, MCP-1-induced calcium flux, primary human monocytes", "setting": "[1]", "result": 3.79, "unit": "nM"}, {"measurement": "EC50 of MCP-1, MCP-1-induced chemotaxis, THP-1 cells", "setting": "[1]", "result": 0.8, "unit": "nM"}, {"measurement": "EC50 of MCP-1, MCP-1-induced chemotaxis, primary human monocytes", "setting": "[1]", "result": 0.389, "unit": "nM"}]}, {"substance": "mMCP-1 (mouse MCP-1) (from UniProt P10148 24-148) (ligand)", "values": [{"measurement": "EC50 of mMCP-1, mMCP-1-induced chemotaxis, WEHI 274.1 cells", "setting": "[2]", "result": 0.12, "unit": "nM"}]}]}
